First the molecules themselves.
B1: 75110_02K11A (antibody, V domains shown)
VH: QVQLQESGPGLVKPSQTLSLTCTVSGGSISSGFYYWTWIRQHPGKGLEWIGYISYSGNTYYNPSFKSRLTISVDTSKSQFSLKLSSVTAADTAVYYCARDRPSNFDAFDIWGQGTMVTVSS
VL: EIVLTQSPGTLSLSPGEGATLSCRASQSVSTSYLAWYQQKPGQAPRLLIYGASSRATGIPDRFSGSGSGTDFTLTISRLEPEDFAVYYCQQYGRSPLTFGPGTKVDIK
notes: Tested as antibody purified from AlivaMab Mouse hybridoma supernatant (captured by anti-mouse IgG Fc)
B2: 75110_04G16A (antibody, V domains shown)
VH: QVQLQESGPGLVKPSQTLSLTCTVSGDSISSGYYYWSWIRQHPGKGLEWIGYISYSGSTYYNPSLKSRLTISVNTSKNQFSLKLSSLTAADTAVYYCARDRPSNFDAFDIWGQGTMVTVSS
VL: EIVLTQSPGTLSLSPGERATLSCRASQSVGSTYLAWYQQKPGQAPRLLIYGAFSRATGIPDRFSGSGSGTDFTLTISRLEPEDFAVYYCQQYGSSPLTFGPGTKVDIK
notes: as for B1
B3: 75110_04D20A (antibody, V domains shown)
VH: QVQLQESGPGLVKPSETLSLTCTVSNGSISDYYWSWIRQPAGKGLEWIGRIYTSGSTNYNPSLKSRITMSVDTSKNQFSLELSSVTAADTAVYYCARELERYYFYGVDVWGQGTTVTVSS
VL: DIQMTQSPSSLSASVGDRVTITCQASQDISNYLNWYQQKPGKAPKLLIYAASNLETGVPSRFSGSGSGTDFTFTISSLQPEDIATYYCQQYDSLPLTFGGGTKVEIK
notes: as for B1
B4: 75110_05E13A (antibody, V domains shown)
VH: EVQLVESGGDLVKPGGSLRLSCAASGFSFSNAWMSWVRQAPGKGLEWVGRVESKTDGGTTDYAAPVKDRFTISRDDSKYTLYLQMNSLKTEDSAVYYCTIGGGFGLELYGFFDYWGQGTLVTVSS
VL: DIQMTQSPSTLSASVGDRVTITCRASQSISSWLAWYQQKPGKAPMLLIYKASSLESGVPSRFSGSGSGTEFTLTISSLQPDDFATYYCLQYNSYYTFGQGTKLEIK
notes: as for B1
B5: 75110_05E05A (antibody, V domains shown)
VH: QVQLQESGPGLVKPSETLSLTCTVSGGSIGSYYWSWIRQPAGKGLEWIGRIYTSGSTNYNPSLKSRVTMSFDTSKNQFSLKLNSVTAADTAVYYCATDGGVGDSLDYWGQGTLVTVSS
VL: DIVMTQTPLSLPVTPGEPASISCRSSQSLLDSDDGNTYLDWYLQKPGQSPQLLIYTLSYRASGVPDRFSGSGSGTDFTLKISRVEAEDVGVYYCMQHIEFPFTFGPGTKVDIK
notes: as for B1
B6: 75110_04H17A (antibody, V domains shown)
VH: QVQLQESGPGLVKPSETLSLTCTVSGGSISTYYWSWIRQSAGKGLEWIGRIYTSERPNYNPSLKSRVTMSVDTSKNQFSLKLNSVSAADTAVYYCARELERPYYYGMDVWGQGTTVTVSS
VL: DVQMTQSPSSLSASVGGRVTITCQASQDISNYLNWYQQKPGKAPKLLIYYASNLETGVPSRFSGSGSGTDFTFTISSLQPEDFATYYCQQYDNLPLTFGGGTKVEIK
notes: as for B1
B7: 75110_05A11A (antibody, V domains shown)
VH: EVQLVESGGGLVKPGGSLTLSCAASGFTFSNTWMSWVRQAPGKGLEWVGRIKSKIDGGTTDYAAPVKGRFTISRDDSKNTLYLQMNSLKTEDTAVYYCTTSGTYSSGWGLFDYWGQGTLVTVSS
VL: DIQMTQSPSSLSASVGDRVTITCQASQDISNYLNWYQQKPGKAPKLLIYDTSNLEAGVPSRFSGSGSGTHFTLTISSLQPEDIATYYCQQYDNLPFTFGGGTRVEIK
notes: as for B1
B8: 75110_04P08A (antibody, V domains shown)
VH: QVQLQQWGAGLLKPSETLSLTCAVYGGSLSGYYWSWIRQSPGKGLEWIGEINQSGSTNYNPSLKSRVTISVDTSKDQFSLRLTSVTAADTAVYYCTRVLNWFDPWGRGTLVTVSS
VL: DIQMTQSPSSVSASVGDRVTLTCRASQDISNWLAWYQQKPGKAPKLLIYAASSLQSGVPSRFSGSGSGTDFTLTISSLQTEDFATYYCQQANSFPYTFGQGTKLEIK
notes: as for B1
B9: 75110_05B13A (antibody, V domains shown)
VH: QVLLEQWGAGLLKPSETLSLTCAVYGGSFSGYYWTWIRQPPGKGLEWIGEINHRGSTNYNPSLKSRVTISIDTSKNQFSLKVKSVTAADTAMYYCTRPDSNWFDPWGQGTLVTVSS
VL: DIQMTQSPSSVSASVGDRVTITCRASQDISNWLAWYQQKPGKAPKLLIFAASSLQSGVPSRFSGSGSGTDFTLTISSLQPEDFATYYCQQANSFPLTFGGGTKVEIK
notes: as for B1
B10: 75110_03I08A (antibody, V domains shown)
VH: QVQLQESGPGLVKPSETLSLTCTVSGGSISSYYWSWIRQPPGKGLEWIGYIYYSGSTNYNPSLKSRVTISVDTSKNQFSLKLSSVTAADTAVYYCAREGEQWFYGLDVWGQGTTVTVSS
VL: EIVLTQSPGTLSLSPGERATLSCRASQSVSSTYLAWYQQKPGQAPRLLIYGSSSRATGIPDRFSGSGSGTDFTLTISRLEPEDFAVYYCQQYGNSFPITFGQGTRLEIK
notes: as for B1
B11: 75110_04B08A (antibody, V domains shown)
VH: QVQLVESGGGVVQPGRSLRLSCTASGFNFINYGIHWVRQAPGKGLEWVTIIWYDGSKKYYADSVKGRFAISRDNSKNTLYLQMNSLRAEDTAVYYCAREDDWNDGLAYWGQGTLVTVSS
VL: AIQMTQSPSSLSASVGDRVTITCRASQDIRNDLGWYQQKPGKAPNLLIYAASNLQSGVPSRFSGSGSGTDFTLTISSLQPEDFATYYCLQDSNYPRTFGQGTKVEIK
notes: as for B1
B12: 75110_05G15A (antibody, V domains shown)
VH: QVQLQESGPGLVKPSQTLSLTCTVSGGSISSGGYFWSWIRQHPGKGLEWIGCIYYSGSTYYIPSLKSRVTISVDTSKNQFSLKLRSVTAADTAVYYCARDGYDYWYFDLWGRGTLVTVSS
VL: not shown
B13: 75110_04G02A (antibody, V domains shown)
VH: not shown
VL: DIVMTQSPDSLAVSLGERATINCKSSQSVLYSSNNKNYLAWYQQKPGQPPKLLFYWASARESGVPDRFSGSGSGTDFTLTISSLQAEDVALYYCQQYFGSFPTFGQGTKLEIK
notes: as for B1
B14: 75110_03I23A (antibody, V domains shown)
VH: QVQLQESGPGLVKPSETLSLTCTASGGSITSYYWNWIRQPAGKGLEWIGRIYTSGSTNYNPSLKSRVTMSVDTSKNQFSLKLSSVTAADTAVYYCARDPGYSDAFNIWGQGTMVTVSS
VL: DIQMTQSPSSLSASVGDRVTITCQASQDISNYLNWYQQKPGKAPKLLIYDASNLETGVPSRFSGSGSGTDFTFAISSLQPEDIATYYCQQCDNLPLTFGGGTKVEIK
notes: as for B1
B15: 75110_05L07A (antibody, V domains shown)
VH: EVQLVESGGGLVQPGGSLRLSCAASGFTFSSYWMSWVRQAPGKGLEWVANINQDGSDKYYVDSVKGRFTISRDNVKNSLYLQINSLRAEDTAVYYCAREGGQWLTLDYWGQGTLVTVSS
VL: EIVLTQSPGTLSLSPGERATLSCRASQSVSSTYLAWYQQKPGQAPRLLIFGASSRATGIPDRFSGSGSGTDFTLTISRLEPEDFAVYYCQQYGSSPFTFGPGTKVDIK
notes: Tested as antibody purified from AlivaMab Mouse hybridoma supernatant (human variable domains, kappa; mouse Fc, captured on anti-mouse IgG Fc sensors); also called ADS75110 purified AMM Ab
B16: 75110_06C16A (antibody, V domains shown)
VH: QVQLQESGPGLVTPSETLSLSCTVSGGSISDYYWSWIRQPGGKGLEWIGRIYSSGSTNYNPSLKSRVTMSVDTSKNQFSLKLSSVTAADTAVYFCARDREDYYYYGMDVWGQGTTVTVSS
VL: DIQMTQSPSSLSASVGDRVTITCQASHDISNYLNWYQQKPGKAPKLLIYAASNLETGVPSRFSGSGSGTDFSFTISSLQPEDIATYYCQQYDHLPLTFGGGTKVEIK
notes: as for B15
B17: 75110_08D24A (antibody, V domains shown)
VH: QVQLQESGPGLVKPSETLSLTCTVSGGSISGFYWSWIRQPAGKGLEWIGRIYTSENTNYNPSLKSRVTMSVDTSKNQFSLKLSSVTAADTAVYYCARDREGYYYYGMDVWGQGTTVTVSS
VL: DIQMTQSPSSLSASVGDRVTITCQASQDISNYLNWYQQKPGKAPKLLIYAASNLETGVPSRFSGSGSGTDFTFTISSLQPEDIATYYCQQYDSLPITFGQGTRLEIK
notes: as for B15
B18: 75110_06D16A (antibody, V domains shown)
VH: QVQLQQWGAGLLKPSETLSLTCAVYGGSFSGYYWSWIRQPPGKGLEWIGEINHSGSTNYNPSLKSRVTISVVTSKNQFSLKLSSVTAADTAVYYCARVLNWFDPWGQGTLVTVSS
VL: DIQMTQSPSSVSASVGDRVTITCRASQDIADWLAWYQQKPGKAPKLLIYAASSFQSGVPSRFSGSGSGTDFTLTISSLQPEDFATYFCQQANSFPYTFGQGTKLEIK
notes: as for B15

As usually defined, the Kd is the equilibrium constant for the complex coming apart. As a reminder, the koff is the first-order rate constant of dissociation. What is called kon is the second-order rate constant of association.

T2 sequence (P16003 26-390 limits assumed): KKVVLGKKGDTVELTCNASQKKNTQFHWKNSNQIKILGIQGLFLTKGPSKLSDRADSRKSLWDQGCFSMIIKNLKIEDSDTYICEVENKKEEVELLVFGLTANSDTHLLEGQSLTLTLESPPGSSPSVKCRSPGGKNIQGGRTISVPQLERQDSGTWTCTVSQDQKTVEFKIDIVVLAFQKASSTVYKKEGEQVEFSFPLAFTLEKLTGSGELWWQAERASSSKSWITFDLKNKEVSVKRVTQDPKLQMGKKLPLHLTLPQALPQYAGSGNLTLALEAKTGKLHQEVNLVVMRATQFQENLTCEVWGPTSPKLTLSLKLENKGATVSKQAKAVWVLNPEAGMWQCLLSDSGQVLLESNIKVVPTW

In one assay the target is T1, Recombinant human CD4 (R&D Systems, Cat. 10327-CD) (human, UniProt P01730 26-390, limits assumed).
T1 construct: Soluble analyte in the Octet assay
Put plainly: BLI Octet, mAb on anti-mouse Fc sensor, CD4 100/50/25 nM, 1:1 global fit.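 Note: antibodies loaded at 10 µg/mL, an unrelated mouse-derived antibody served as internal reference control, association and dissociation phases fitted after Savitzky-Golay smoothing.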 Background: In BLI a coated tip is dipped into the sample, and binding shifts an interference pattern.
For B1, the Kd was determined as 19 nM, the Response was determined as 0.11, the dissociation rate constant (koff) came to 0.0014 s⁻¹ and the on-rate (kon) was 74000 M⁻¹ s⁻¹.
On to B2, for which the equilibrium dissociation constant (Kd) was found to be 5.3 nM, the Response is 0.23, the off-rate constant (koff) was 0.00047 s⁻¹ and the kon was 89000 M⁻¹ s⁻¹.
Regarding B3, the Kd came out at 8.9 nM, the Response stood at 0.14, the off-rate (koff) amounted to 0.0008 s⁻¹ and the kon came to 90000 M⁻¹ s⁻¹.
Taken in the same sequence, the figures for B4 were 2.2 nM, 0.37, 0.00022 s⁻¹ and 100000 M⁻¹ s⁻¹.
For B5, the Kd is less than 0.001 nM, the Response worked out at 0.18, the koff is less than 1e-07 s⁻¹ and the association rate constant (kon) was determined as 34000 M⁻¹ s⁻¹.
Taken in the same sequence, the figures for B6 were 0.25 nM, 0.15, 1.8e-05 s⁻¹ and 73000 M⁻¹ s⁻¹.
In the case of B7, the Kd is 18 nM, the Response was 0.27, the koff was 0.0018 s⁻¹ and the association rate constant (kon) is 97000 M⁻¹ s⁻¹.
On to B8, for which the equilibrium dissociation constant (Kd) was 3.6 nM, the Response amounted to 0.23, the koff turned out to be 0.0005 s⁻¹ and the kon was 140000 M⁻¹ s⁻¹.
Taken in the same sequence, the figures for B9 were 5.4 nM, 0.28, 0.00058 s⁻¹ and 110000 M⁻¹ s⁻¹.
Taken in the same sequence, the figures for B10 were 8.8 nM, 0.14, 0.0011 s⁻¹ and 130000 M⁻¹ s⁻¹.
As to B11, the Kd was 17 nM, the Response came out at 0.25, the koff was 0.0037 s⁻¹ and the association rate constant (kon) is 220000 M⁻¹ s⁻¹.
Taken in the same sequence, the figures for B12 were 13 nM, 0.09, 0.0022 s⁻¹ and 170000 M⁻¹ s⁻¹.
B13: the Kd came to 16 nM, the Response amounted to 0.17, the koff is 0.0015 s⁻¹ and the kon was 90000 M⁻¹ s⁻¹.
Taken in the same sequence, the figures for B14 were less than 0.001 nM, 0.18, less than 1e-07 s⁻¹ and 80000 M⁻¹ s⁻¹.

A further assay addresses T2, Rhesus macaque CD4-HIS (Acro Biosystems, Cat. CD4-C52H7) (rhesus macaque, UniProt P16003 26-390).
T2 construct: Bought reagent; also called Rhesus CD4; rhesus CD4-HIS; not shown: His tag
The experiment in a line: BLI (Octet Red384); Ab on anti-mouse Fc (AMC) sensor; rhesus CD4-HIS 100/50/25 nM; global 1:1 fit.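 Note: antibodies loaded at 10 µg/mL, an unrelated mouse-derived antibody served as internal reference, curves fit over association and dissociation phases.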
B15 registered a Kd of 7.6 nM, a Response of 0.31, a koff of 0.0011 s⁻¹ and an on-rate constant (kon) of 150000 M⁻¹ s⁻¹.
Take B16: the affinity, expressed as Kd, was 27 nM; the Response was 0.15; the off-rate constant (koff) worked out at 0.002 s⁻¹; the kon came out at 73000 M⁻¹ s⁻¹.
Taken in the same sequence, the figures for B17 were 53 nM, 0.05, 0.0017 s⁻¹ and 32000 M⁻¹ s⁻¹.
B18 gave a Kd of 240 nM, a Response of 0.09, a koff of 0.022 s⁻¹ and an on-rate (kon) of 91000 M⁻¹ s⁻¹.

The record behind these values is patent publication US20220112288A1 (published 2022).
